Results reported in publication PMC11864173 (Science Advances, 2025).

Target: AaRseP(WT)-His8 (Aquifex aeolicus RseP, wild type) (Aquifex aeolicus, UniProt O67776)
Assay: cryo-EM structure

binding result: binds
B1: 4A9 Fab (Fab of the anti-AaRseP mouse monoclonal antibody 4A9), with PA tag (Fab, V domains shown)
VH: EVKLVESGGGLVQPGGSLRLSCVTSGFTFTDYYMSWVRQPPGKALEWLAFIRNKVNGYTTEYRASVKGRFTISRDSSQSILYLQVNTLRAEDSATYYCARDRGGNGVYFDYWGQGTTLTVSS
VL: DIVMTQSHKFMSTSVGDRVSITCKASQDVGTDVAWYQQKPGQSPKLLIYWASIRHTGVPDRFTGSGSGTDFTLTISNVQSEDLADYFCQQYSSYPLTFGAGTKLELE
